Biological target: T1, AtWRKY1N (N-terminal WRKY DNA-binding domain) (UniProt Q9SI37 105-169)
Assay: KaScape pull-down + NGS; random n=4 pool; second strongest; KaScape: 2e-11 mol protein and 1e-10 mol dsDNA in 2 mL, 30 min, Ni beads 1 h at 4 C, washes in buffer C (25 mM HEPES pH 7.0, 100 mM NaCl); EMSA buffer not given
Settings: protein: recombinant; tags: C-terminal His-tag (pET21b)

T1 sequence (Q9SI37 105-169): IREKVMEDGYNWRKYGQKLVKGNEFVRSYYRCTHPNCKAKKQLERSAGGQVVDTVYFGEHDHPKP

| Binder | binding result |
| --- | --- |
| KaScape n=4 member GACT (dsDNA) DNA 1: GCGCTGACTAGGAGTGGGATCCGGGGGGGG DNA 2: CCCCCCCCGGATCCCACTCCTAGTCAGCGC | binds |

Biological target: T1, AtWRKY1N (N-terminal WRKY DNA-binding …)
Assay: EMSA; protein:DNA 1:1 and 2:1; KaScape: 2e-11 mol protein and 1e-10 mol dsDNA in 2 mL, 30 min, Ni beads 1 h at 4 C, washes in buffer C (25 mM HEPES pH 7.0, 100 mM NaCl); EMSA buffer not given
Settings: protein: recombinant; tags: C-terminal His-tag (pET21b)

| Binder | binding result |
| --- | --- |
| type 6 (TGACC) (dsDNA) DNA 1: GCGCTTGACCAGGAG DNA 2: CTCCTGGTCAAGCGC | binds |
| type 5 (AGACC) (dsDNA) DNA 1: GCGCTAGACCAGGAG DNA 2: CTCCTGGTCTAGCGC | binds |
| type 7 (CGACC) (dsDNA) DNA 1: GCGCTCGACCAGGAG DNA 2: CTCCTGGTCGAGCGC | no binding |
| type 4 (GACCA) (dsDNA) DNA 1: GCGCTGACCAAGGAG DNA 2: CTCCTTGGTCAGCGC | binds |
| type 3 (GACCC) (dsDNA) DNA 1: GCGCTGACCCAGGAG DNA 2: CTCCTGGGTCAGCGC | binds |
| type 2 (GACCT) (dsDNA) DNA 1: GCGCTGACCTAGGAG DNA 2: CTCCTAGGTCAGCGC | binds |
| type 8 (GGACC) (dsDNA) DNA 1: GCGCTGGACCAGGAG DNA 2: CTCCTGGTCCAGCGC | binds |
| type 1 (GACCG) (dsDNA) DNA 1: GCGCTGACCGAGGAG DNA 2: CTCCTCGGTCAGCGC | binds |
